Measurements from patent US20030147847A1 (IMMUNEX, published 2003).

B1: human ULBP1-Fc fusion polypeptide (Fc fusion)
chain: WSRAGWVDTHCLCYDFIITPKSRPEPQWCEVQGLVDERPFLHYDCVNHKAKAFASLGKKVNVTKTWEEQTETLRDVVDFLKGQLLDIQVENLIPIEPLTLQARMSCEHEAHGHGRGSWQFLFNGQKFLLFDSNNRKWTALHPGAKKMTEKWEKNRDVTMFFQKISLGDCKMWLEEFLMYWEQMLDPTKPPSLAPGTTQPRSCDKTHTCPPCPAPEAEGAPSVFLFPPKPKDTLMISRTPEVTCVVVDVSHEDPEVKFNWYVDGVEVHNAKTKPREEQYNSTYRVVSVLTVLHQDWLNGKEYKCKVSNKALPAPIEKTISKAKGQPREPQVYTLPPSRDELTKNQVSLTCLVKGFYPSDIAVEWESNGQPENNYKTTPPVLDSDGSFFLYSKLTVDKSRWQQGNVFSCSVMHEALHNHYTQKSLSLSPGK
notes: ULBP-1 extracellular domain fused to the human IgG1 Fc mutein
B2: MICA/Fc (Fc fusion, UniProt Q29983 24-307, looked up)
chain: EPHSLRYNLTVLSWDGSVQSGFLTEVHLDGQPFLRCDRQKCRAKPQGQWAEDVLGNKTWDRETRDLTGNGKDLRMTLAHIKDQKEGLHSLQEIRVCEIHEDNSTRSSQHFYYDGELFLSQNLETKEWTMPQSSRAQTLAMNVRNFLKEDAMKTKTHYHAMHADCLQELRRYLKSGVVLRRTVPPMVNVTRSEASEGNITVTCRASGFYPWNITLSWRQDGVSLSHDTQQWGDVLPDGNGTYQTWVATRICQGEEQRFTCYMEHSGNHSTHPVPSGKVLVLQSHW
notes: not shown: Fc portion not described
B3: UL16-Fc fusion protein (Fc fusion)
chain: VDLGSKSSNSTCRLNVTELASIHPGETWTLHGMCISICYYENVTEDEIIGVAFTWQHNESVVDLWLYQNDTVIRNFSDITTNILQDGLKMRTVPVTKLYTSRMVTNLTVGRYDCLRCENGTTKIIERLYVRLGSLYPRPPGSGLAKHPSVSADEELSA
notes: extracellular domain; not shown: IgG1 Fc (mutein form), as described for OX40-Fc (Baum et al., EMBO J. 13:3992-4001, 1994); the mutein is described in p-
B4: human ULBP2-Fc fusion polypeptide (Fc fusion)
chain: WSRAGRADPHSLCYDITVIPKFRPGPRWCAVQGQVDEKTFLHYDCGNKTVTPVSPLGKKLNVTTAWKAQNPVLREVVDILTEQLRDIQLENYTPKEPLTLQARMSCEQKAEGHSSGSWQFSFDGQIFLLFDSEKRMWTTVHPGARKMKEKWENDKVVAMSFHYFSMGDCIGWLEDFLMGMDSTLEPSAGAPLAMSSGTTQLRRSCDKTHTCPPCPAPEAEGAPSVFLFPPKPKDTLMISRTPEVTCVVVDVSHEDPEVKFNWYVDGVEVHNAKTKPREEQYNSTYRVVSVLTVLHQDWLNGKEYKCKVSNKALPAPIEKTISKAKGQPREPQVYTLPPSRDELTKNQVSLTCLVKGFYPSDIAVEWESNGQPENNYKTTPPVLDSDGSFFLYSKLTVDKSRWQQGNVFSCSVMHEALHNHYTQKSLSLSPGK
notes: ULBP-2 extracellular domain (residues 1-223) fused to the human IgG1 Fc mutein
B5: Full length UL16 on transfected 293 EBNA cells (other)
chain: VDLGSKSSNSTCRLNVTELASIHPGETWTLHGMCISICYYENVTEDEIIGVAFTWQHNESVVDLWLYQNDTVIRNFSDITTNILQDGLKMRTVPVTKLYTSRMVTNLTVGRYDCLRCENGTTKIIERLYVRLGSLYPRPPGSGLAKHPSVSADEELSATLARDIVLVSAITLFFFLLALRIPQRLCQRLRIRLPHRYQRLRTED
notes: whole, on cells; also called UL16 FL
B6: MICB/Fc (Fc fusion, UniProt Q29980 23-309, looked up)
chain: AEPHSLRYNLMVLSQDGSVQSGFLAEGHLDGQPFLRYDRQKRRAKPQGQWAENVLGAKTWDTETEDLTENGQDLRRTLTHIKDQKGGLHSLQEIRVCEIHEDSSTRGSRHFYYDGELFLSQNLETQESTVPQSSRAQTLAMNVTNFWKEDAMKTKTHYRAMQADCLQKLQRYLKSGVAIRRTVPPMVNVTCSEVSEGNITVTCRASSFYPRNITLTWRQDGVSLSHNTQQWGDVLPDGNGTYQTWVATRIRQGEEQRFTCYMEHSGNHGTHPVPSGKALVLQSQRTD
notes: also called MICB1/FC; not shown: Fc portion not described

What was measured:
[1] = target: FLAG tagged Dap10 alone on transfected 293 EBNA cells (UniProt Q9UBK5); assay: flow cytometry, transfected 293 EBNA cells, 2 µg Fc protein + goat anti-human IgG PE
[2] = target: NKG2D alone on transfected 293 EBNA cells (UniProt P26718); assay: as above
[3] = target: Full length UL16 on transfected 293 EBNA cells (human cytomegalovirus) (UniProt P16757); assay: as above
[4] = target: NKG2D/Dap10 on transfected 293E cells (UniProt P26718); assay: as above
[5] = target: human ULBP1-Fc fusion polypeptide (human); assay: flow cytometry; ULBP1/FC preincubated with excess isotype control antibody, then added to 293E cells transfected with NKG2D/Dap10; goat anti-huIg PE
[6] = target: PERB11/Fc; assay: flow cytometry; PERB11/FC preincubated with excess isotype control antibody, then added to 293E cells transfected with NKG2D/Dap10; goat anti-huIg PE
[7] = target: human ULBP2-Fc fusion polypeptide (human); assay: flow cytometry; ULBP2/FC preincubated with excess isotype control antibody, then added to 293E cells transfected with NKG2D/Dap10; goat anti-huIg PE
[8] = target: ULBP3/Fc (human) (UniProt Q9BZM4); assay: flow cytometry; ULBP3/FC preincubated with excess isotype control antibody, then added to 293E cells transfected with NKG2D/Dap10; goat anti-huIg PE
ULBP3/Fc (human), sequence (Q9BZM4 30-217): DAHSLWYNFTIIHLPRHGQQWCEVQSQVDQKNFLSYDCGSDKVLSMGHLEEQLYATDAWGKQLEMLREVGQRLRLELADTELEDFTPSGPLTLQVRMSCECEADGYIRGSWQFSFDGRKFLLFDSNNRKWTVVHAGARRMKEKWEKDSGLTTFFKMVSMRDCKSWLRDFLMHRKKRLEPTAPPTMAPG

[9] = target: T1, NKG2D/Dap10 on transfected 293E cells (UniProt P26718 1-216; Q9UBK5 19-93); assay: flow cytometry; NKG2D/Dap10-transfected 293E cells, M1 + sheep anti-mouse IgG PE (expression control)
T1 construct: whole, on cells; Co-expressed on 293 EBNA (293E) cells from the pDC409 vector; also called NKG2D+FLAG tagged Dap10
T1 sequence 1: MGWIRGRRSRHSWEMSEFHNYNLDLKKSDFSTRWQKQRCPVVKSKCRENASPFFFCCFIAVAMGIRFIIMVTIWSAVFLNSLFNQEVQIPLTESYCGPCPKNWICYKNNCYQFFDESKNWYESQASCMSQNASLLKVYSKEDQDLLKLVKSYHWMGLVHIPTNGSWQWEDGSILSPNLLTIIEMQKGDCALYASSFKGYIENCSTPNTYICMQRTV
T1 sequence 2: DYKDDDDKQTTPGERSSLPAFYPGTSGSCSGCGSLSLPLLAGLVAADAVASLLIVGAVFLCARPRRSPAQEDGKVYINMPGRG

[10] = target: FLAG tagged Dap10 alone on transfected 293 EBNA cells (UniProt Q9UBK5); assay: flow cytometry, transfected 293 EBNA cells, M1 + sheep anti-mouse IgG PE
[11] = target: NKG2D alone on transfected 293 EBNA cells (UniProt P26718); assay: as above
[12] = target: Full length UL16 on transfected 293 EBNA cells (human cytomegalovirus) (UniProt P16757); assay: as above
[13] = target: T1, NKG2D/Dap10 on transfected 293E cells; assay: as above
[14] = target: T1, NKG2D/Dap10 on transfected 293E cells; assay: flow cytometry; NKG2D/Dap10-transfected 293E cells, M1 + sheep anti-mouse IgG PE (expression control); remark: listed apart in the source
[15] = target: T1, NKG2D/Dap10 on transfected 293E cells; assay: flow cytometry; NKG2D/Dap10-transfected 293E cells preincubated with 25 µg ULBP1/LZ (competitor)
[16] = target: T1, NKG2D/Dap10 on transfected 293E cells; assay: flow cytometry; NKG2D/Dap10-transfected 293E cells preincubated with 25 µg hCD40L/LZ (control blocking protein)
[17] = target: T1, NKG2D/Dap10 on transfected 293E cells; assay: flow cytometry, transfected 293 EBNA cells, 2 µg Fc protein + goat anti-human IgG PE
[18] = target: B5; assay: as above
[19] = target: T2, NKG2D alone on transfected 293 EBNA cells (UniProt P26718 1-216, limits assumed); assay: as above
T2 construct: whole, on cells
T2 sequence (looked up): T1 sequence 1

[20] = target: T3, FLAG tagged Dap10 alone on transfected 293 EBNA cells (UniProt Q9UBK5 19-93); assay: as above
T3 construct: whole, on cells
T3 sequence: T1 sequence 2

[21] = target: B2; assay: flow cytometry on 293 EBNA cells transfected with full length UL16

Row | Molecule | Mean Fluorescence Intensity (MFI) [15] | Mean Fluorescence Intensity (MFI) [16] | Mean Fluorescence Intensity (MFI) [17] | Mean Fluorescence Intensity (MFI) [18] | Mean Fluorescence Intensity (MFI) [19] | Mean Fluorescence Intensity (MFI) [20] | further results
1 | p7.5/Fc (Fc fusion) |  |  |  |  |  |  | Mean Fluorescence Intensity (MFI) [1]: 12.1 MFI; Mean Fluorescence Intensity (MFI) [2]: 9.99 MFI; Mean Fluorescence Intensity (MFI) [3]: 12.1 MFI; Mean Fluorescence Intensity (MFI) [4]: 12.2 MFI
2 | antibody M90 (isotype matched control antibody) |  |  |  |  |  |  | MFI of staining protein on NKG2D/Dap10 cells after preincubation with blocking antibody [5]: 216 MFI; MFI of staining protein on NKG2D/Dap10 cells after preincubation with blocking antibody [6]: 167 MFI; MFI of staining protein on NKG2D/Dap10 cells after preincubation with blocking antibody [7]: 192 MFI; MFI of staining protein on NKG2D/Dap10 cells after preincubation with blocking antibody [8]: 160 MFI
3 | M1 anti-FLAG antibody |  |  |  |  |  |  | Mean Fluorescence Intensity (MFI) [9]: 368 MFI; Mean Fluorescence Intensity (MFI) [10]: 112 MFI; Mean Fluorescence Intensity (MFI) [11]: 8.49 MFI; Mean Fluorescence Intensity (MFI) [12]: 11.3 MFI; Mean Fluorescence Intensity (MFI) [13]: 130 MFI; Mean Fluorescence Intensity (MFI) [14]: 261 MFI
4 | PERB11/Fc (Fc fusion) | 11 MFI | 280 MFI | 109 MFI |  |  |  | Mean Fluorescence Intensity (MFI) [1]: 12.7 MFI; Mean Fluorescence Intensity (MFI) [2]: 10.2 MFI; Mean Fluorescence Intensity (MFI) [3]: 161 MFI
5 | B1 | 11 MFI | 263 MFI | 115 MFI | 142 MFI | 10.4 MFI | 13.6 MFI | 
6 | B2 | 11 MFI | 256 MFI | 120 MFI | 14 MFI | 15.4 MFI | 12 MFI | 
7 | B3 |  |  | 21.2 MFI | 17.9 MFI | 27.9 MFI | 39.2 MFI | 
8 | B4 | 8 MFI | 236 MFI | 117 MFI | 121 MFI | 8.96 MFI | 11.5 MFI | 
9 | B5 |  |  |  |  |  |  | binding result [21]: no binding (tested: 2 µg)
10 | B6 | 9 MFI | 258 MFI | 118 MFI | 94.5 MFI | 9.58 MFI | 18.4 MFI | 
